Among the data in patent US6346249 (LUDWIG INSTITUTE FOR CANCER RESEARCH, dated 2002) are koff, kon and Kd values, retold here.

In test [1] the target is T1, recombinant human A33 antigen (human, UniProt Q99795 22-233, limits assumed).
T1 construct: also called human antigen A33; immobilized recombinant human A33
T1 sequence (looked up): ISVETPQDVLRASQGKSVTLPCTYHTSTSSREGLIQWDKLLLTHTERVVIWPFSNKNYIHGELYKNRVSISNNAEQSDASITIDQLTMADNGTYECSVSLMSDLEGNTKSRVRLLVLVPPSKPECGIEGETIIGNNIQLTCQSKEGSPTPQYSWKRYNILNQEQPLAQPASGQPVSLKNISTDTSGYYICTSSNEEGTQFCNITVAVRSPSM
As to the kind of experiment: SPR (Biacore), recombinant human A33 immobilized on CM5 chip, Fab injected at 75-200 nM. The protocol:
(§1) The binding strength was determined by surface plasmon resonance in accordance with Rader, et al., Proc. Natl. Acad. Sci USA 95(15): 8910–8915 (1998), incorporated by reference. Briefly, the determination of association ($kon$) and dissociation ($koff$) rate constants for binding of rabbit and humanized Fab to recombinant human A33 antigen was performed on a Biacore instrument (Biacore AB, Uppsala, Sweden). A CM5 sensor chip (Biacore AB) was activated for immobilization with Nhydroxysuccinimide and N-ethyl-N'-(3-dimethylaminopropyl)carbodiimide according to standard methods. Recombinant human A33 antigen was coupled at a low density to the surface by injection of 30 µl to 40 µl of a 1 ng/µl sample in 10 mM sodium acetate (pH 3.5). Approximately 500 resonance units were immobilized. Subsequently, the sensor chip was deactivated with 1 M ethanolamine hydrochloride (pH 8.5). Binding of Fab to immobilized A33 antigen was studied by injection of Fab at 5 different concentrations ranging from 75 nM to 200 nM. PBS was used as the running buffer. The sensor chip was regenerated with 20 mM HCl and remained active for at least 50 measurements. The $kon$ and $koff$ values were calculated using Biacore AB evaluation software. The equilibrium dissociation constant K_d was calculated from $koff/kon$.
Figure 6: FIG. 6 depicts representative Biacore sensorgrams obtained for the binding of rabbit Fab 1 to immobilized human A33 antigen. For association, Fab were injected at 5 different concentrations (200 nM, 150 nM, 125 nM, 100 nM, 75 nM, top to bottom) between t=125 and t=370 seconds, using a flow rate of 5 µl/minute. For dissociation, the flow rate was increased to 50 µl/minute resonance units (RU).

The target of test [2] is T1, recombinant human A33 antigen. The test is described as follows: SPR (Biacore), recombinant human A33 immobilized on CM5 chip; Kd calculated from koff/kon. The protocol:
as §1
Association ($kon$) and dissociation ($koff$) rate constant were determined using surface plasmon resonance. Human antigen A33 was immobilized on the sensor chip. The dissociation constant (K_d) was calculated from […].

B1: rabbit Fab 1 (rabbit VH1, VL1; chimeric rabbit/human Fab) (Fab, V domains shown)
VH: QQQVMESGGGLVTLGGSLTLTCKASGIDFSNNGISWVRQAPGKGLEWILYIYPDYGSTDYASWVNGRFTISLDNAQNTVFLQMTSLTAADTATYFCARDRGAYAGSRGTRLDLWGQGTLVTVSS
VL: EFDMTQTPPSLSASVGETVRIRCLASEFLFNGVSWYQQKPGKPPKFLISGASNLESGVPPRFSGSGSGTDYTLTIGGVQAEDVATYYCLGGYSGSSGLTFGAGTNVEIK
notes: Soluble Fab from E. coli; also called rabbit 1; rabbit clone 1
B1: in test [1], the koff stood at 0.00012 s⁻¹ and the on-rate constant (kon) is 307000 M⁻¹ s⁻¹. In addition, the Kd in test [2] was 0.39 nM.

B2: humanized Fab B (human VLB and human VHB) (Fab, V domains shown)
VH: EVQVMESGGGLVKPGGSLRLSCAASGIGFSHYGISWVRQAPGKGLEWVSYIYPNYGSVDYASSVNGRFTISLDNAQNSLYLQMNSLRAEDTAVYFCARDRGYYSGSRGTRLDLWGQGTLVTVSS
VL: ELQMTQSPSSLSASVGDRVTITCLASEFLFNGVSWYQQKPGKVPKFLIYGASNLESGVPSRFSGSGSGTDFTLTISSLQPEDVATYYCLGGYSGSSGLTFGGGTKVEIK
As to B2, in test [1], the koff worked out at 0.00061 s⁻¹ and the on-rate constant (kon) was determined as 352000 M⁻¹ s⁻¹. In addition, in test [2], the Kd is 1.7 nM.

B3: humanized Fab D (human VLD and human VHD) (Fab, V domains shown)
VH: EVQVMESGGGLVKPGGSLRLSCAASGIDFSHYGISWVRQAPGKGLEWVSYIYPNYGSVDYASSVNGRFTISLDNAQNSLYLQMNSLRAEDTAVYFCARDRGYYSGSRGTRLDLWGQGTLVTVSS
VL: ELQMTQSPSSLSASVGDRVTITCLASEFLFNGVSWYQQKPGKVPKFLIYGASNLESGVPSRFSGSGSGTDYTLTISSLQPEDVATYYCLGGYSGSSGLTFGGGTKVEIK
As to B3, in test [1], the koff was 0.0019 s⁻¹ and the kon was determined as 65000 M⁻¹ s⁻¹. For the same molecule, the Kd in test [2] was 29.2 nM.

B4: humanized Fab E (human VLE and human VHE) (Fab, V domains shown)
VH: EVQVMESGGGLVKPGGSLRLSCAASGFTFSHYGISWVRQAPGKGLEWVSYIYPNYGSVDYASSVNGRFTISFDNAQNSVYLQMNSLRAEDTAVYYCARDRGYYSGSRGTRLDLWGQGTLVTVSS
VL: ELQMTQSPSSLSASVGDRVTITCLASEFLFNGVSWYQQKPGKAPKLLIYGASNLESGVPSRFSGSGSGTDYTLTISSLQPEDVATYYCLGGYSGSSGLTFGGGTKVEIK
Regarding B4, in test [1], the off-rate (koff) amounted to 0.0005 s⁻¹ and the kon amounted to 65000 M⁻¹ s⁻¹. Further, in test [2], the Kd was 7.7 nM.

B5: humanized Fab C (human VLC and human VHC) (Fab, V domains shown)
VH: EVQVMESGGGLVKPGGSLRLSCAASGIDFSHYGISWVRQAPGKGLEWVSYIYPNYGSVDYASSVNGRFTISLDNAQNSLYLQMNSLRAEDTAVYYCARDRGYYSGSRGTRLDLWGQGTLVTVSS
VL: ELQMTQSPSSLSASVGDRVTITCLASEFLFNGVSWYQQKPGKAPKFLIYGASNLESGVPSRFSGSGSGTDFTLTISSLQPEDVATYYCLGGYSGSSGLTFGGGTKVEIK
With B5, in test [1], the koff came out at 0.00197 s⁻¹ and the kon was 109000 M⁻¹ s⁻¹. For the same molecule, the dissociation constant Kd in test [2] is 18.1 nM.

B6: humanized Fab F (human VLF and human VHF) (Fab, V domains shown)
VH: EVQVMESGGGLVKPGGSLRLSCAASGIGFSHYGISWVRQAPGKGLEWVSYIYPNYGSVDYASSVNGRFTISLDNAQNSLYLQMNSLRAEDTAVYYCARDRGYYSGSRGTRLDLWGQGTLVTVSS
VL: ELQMTQSPSSLSASVGDRVTITCLASEFLFNGVSWYQQKPGKAPKFLIYGASNLESGVPSRFSGSGSGTDFTLTISSLQPEDVATYYCLGGYSGSSGLTFGGGTKVEIK
Consider B6, for which, in test [1], the koff was 0.00068 s⁻¹ and the on-rate (kon) came to 192000 M⁻¹ s⁻¹. The Kd in test [2] is 3.5 nM.

B7: humanized Fab A (human VLA and human VHA) (Fab, V domains shown)
VH: EVQVMESGGGLVKPGGSLRLSCAASGIDFSHYGISWVRQAPGKGLEWVSYIYPNYGSVDYASSVNGRFTISFDNAQNSLYLQMNSLRAEDTAVYYCARDRGYYSGSRGTRLDLWGQGTLVTVSS
VL: ELQMTQSPSSLSASVGDRVTITCLASEFLFNGVSWYQQKPGKVPKFLIYGASNLESGVPSRFSGSGSGTDYTLTISSLQPEDVATYYCLGGYSGSSGLTFGGGTKVEIK
In the case of B7, in test [1], the koff is 0.00059 s⁻¹ and the kon is 105000 M⁻¹ s⁻¹. For the same molecule, in test [2], the Kd was 5.6 nM.
